Assay results: patent publication US20140328939A1, “METHOD FOR PREPARING BIOCOMPATIBLE SMALL INTESTINAL MUCOSA HYDROGEL CAPABLE OF CONTROLLING IN-VIVO DEGRADATION PERIOD” (AJOU UNIVERSITY INDUSTRY-ACADEMIC COOPERATION FOUNDATION, priority 2011, published 2014)

Test: In-vivo drug release test (FITC-labeled albumin)
Conditions: 0.5 mL subcutaneous, SD rats; FITC-BSA 1 mg/mL
Method: The prepared small intestinal submucosa powder was dissolved in phosphate buffered saline to 10, 15 and 20 wt %, respectively, to prepare homogeneous solutions. Then, FITC-labeled albumin (FITC-BSA) was added to a concentration of 1 mg/mL. 0.5 mL of the albumin-containing small intestine submucosa solutions were subcutaneously injected to nine SD rats (male, 8 weeks old, 350-380 g) using a syringe (21 G, 1-cc needle). For comparison, 0.5 mL of a solution containing FITC-labeled albumin of the same concentration was subcutaneously injected to three rats. When only albumin was subcutaneously injected, the drug was not released any more after 1 day. In contrast, in case of the albumin-containing small intestinal submucosa hydrogel, the drug was continuously released for about 9 days.

albumin: FITC-labeled albumin (FITC-BSA) solution, model drug injected alone for comparison
duration of drug release (albumin concentration in blood): ≤ 1 days
